Assay results from US20150086555A1.

How the values were obtained:
Details in all cases: remark: other sources report otherwise
[1] = target: recombinant homotrimeric HA A/Netherlands/219/03 H7N7 (Influenza A virus A/Netherlands/219/03(H7N7)); assay: protein microarray, purified IgG, trimeric HA
[2] = target: recombinant homotrimeric HA A/California/4/09 H1N1 (Influenza A virus A/California/04/2009(H1N1)); assay: protein microarray, purified IgG, trimeric HA
[3] = target: recombinant homotrimeric HA A/Hong Kong/156/97 H5N1 (Influenza A virus A/Hong Kong/156/97 (H5N1)); assay: protein microarray, purified IgG, trimeric HA
[4] = target: recombinant homotrimeric HA A/Vietnam/1203/04 H5N1 (Influenza A virus A/VietNam/1203/2004(H5N1)); assay: protein microarray, purified IgG, trimeric HA
[5] = target: recombinant homotrimeric HA A/Wisconsin/67/05 H3N2 (Influenza A virus A/Wisconsin/67/2005(H3N2)); assay: protein microarray, purified IgG, trimeric HA
[6] = target: recombinant homotrimeric HA A/South Carolina/1/18 H1N1 (Influenza A virus A/South Carolina/1/18 (H1N1)); assay: protein microarray, purified IgG, trimeric HA
[7] = target: recombinant homotrimeric HA A/Japan/305/57 H2N2 (Influenza A virus A/Japan/305/1957(H2N2)); assay: protein microarray, purified IgG, trimeric HA
[8] = target: recombinant homotrimeric HA A/Hong Kong/2108/03 H9N2 (Influenza A virus A/HK/2108/2003(H9N2)); assay: protein microarray, purified IgG, trimeric HA
[9] = target: recombinant homotrimeric HA A/Egypt/3300-NAMRU3/08 H5N1 (Influenza A virus A/Egypt/3300-NAMRU3/2008(H5N1)); assay: protein microarray, purified IgG, trimeric HA
[10] = target: T1, recombinant soluble homotrimeric HA of A/swine/Ontario/01911-2/99 (H4N6) (Influenza A virus A/Swine/Ontario/01911-2/99 (H4N6)); assay: HA microarray, BCC supernatant
[11] = target: T2, recombinant soluble homotrimeric HA of A/Netherlands/219/03 (H7N7) (Influenza A virus A/Netherlands/219/03(H7N7)); assay: HA microarray, BCC supernatant
[12] = target: recombinant soluble homotrimeric HA of A/Hong Kong/2108/03 (H9N2) (Influenza A virus A/HK/2108/2003(H9N2)); assay: HA microarray, BCC supernatant
[13] = target: T3, recombinant soluble homotrimeric HA of A/Wisconsin/67/05 (H3N2) (Influenza A virus A/Wisconsin/67/2005(H3N2)); assay: HA microarray, BCC supernatant
[14] = target: recombinant soluble homotrimeric HA of A/northern shoveler/California/HKWF115/07 (H6) (Influenza A virus A/northern shoveler/California/HKWF115/2007(H6N1)); assay: HA microarray, BCC supernatant
[15] = target: T4, recombinant soluble homotrimeric HA of A/Japan/305/57 (H2N2) (Influenza A virus A/Japan/305/1957(H2N2)); assay: HA microarray, BCC supernatant
[16] = target: T5, recombinant soluble homotrimeric HA of A/Egypt/3300-NAMRU3/08 (H5N1) (Influenza A virus A/Egypt/3300-NAMRU3/2008(H5N1)); assay: HA microarray, BCC supernatant
[17] = target: T6, recombinant soluble homotrimeric HA of A/Vietnam/1203/04 (H5N1) (Influenza A virus A/VietNam/1203/2004(H5N1)); assay: HA microarray, BCC supernatant
[18] = target: T7, recombinant soluble homotrimeric HA of A/California/4/09 (H1N1) (Influenza A virus A/California/04/2009(H1N1)); assay: HA microarray, BCC supernatant
[19] = target: T8, recombinant soluble homotrimeric HA of A/Indonesia/5/05 (H5N1) (Influenza A virus A/Indonesia/5/2005(H5N1)); assay: HA microarray, BCC supernatant
[20] = target: recombinant soluble homotrimeric HA of A/Anhui/1/05 (H5N1) (Influenza A virus A/Anhui/1/2005(H5N1)); assay: HA microarray, BCC supernatant
[21] = target: T9, recombinant soluble homotrimeric HA of A/duck/Yangzhou/02/05 (H8N4) (Influenza A virus A/duck/Yangzhou/02/2005(H8N4)); assay: HA microarray, BCC supernatant
[22] = target: T10, recombinant soluble homotrimeric HA of A/chicken/Vietnam/NCVD-016/08 (H5N1) (Influenza A virus A/chicken/Vietnam/NCVD-016/2008(H5N1)); assay: HA microarray, BCC supernatant
[23] = target: T1, recombinant soluble homotrimeric HA of …; assay: trimeric HA microarray, transfection supernatant set 5
[24] = target: T2, recombinant soluble homotrimeric HA of …; assay: as above
[25] = target: T3, recombinant soluble homotrimeric HA of …; assay: as above
[26] = target: T4, recombinant soluble homotrimeric HA of …; assay: as above
[27] = target: T5, recombinant soluble homotrimeric HA of …; assay: as above
[28] = target: recombinant soluble homotrimeric HA of A/South Carolina/1/18 (H1N1) (Influenza A virus A/South Carolina/1/18 (H1N1)); assay: as above
[29] = target: recombinant soluble homotrimeric HA of A/Hong Kong/156/97 (H5N1) (Influenza A virus A/Hong Kong/156/97 (H5N1)); assay: as above
[30] = target: T6, recombinant soluble homotrimeric HA of …; assay: as above
[31] = target: T7, recombinant soluble homotrimeric HA of …; assay: as above
[32] = target: T8, recombinant soluble homotrimeric HA of …; assay: as above
[33] = target: T9, recombinant soluble homotrimeric HA of …; assay: as above
[34] = target: T10, recombinant soluble homotrimeric HA of …; assay: as above
[35] = target: recombinant homotrimeric HA A/duck/Yangzhou/02/05 H8N4 (Influenza A virus A/duck/Yangzhou/02/2005(H8N4)); assay: protein microarray, purified IgG, trimeric HA
[36] = target: recombinant homotrimeric HA A/chicken/Vietnam/NCVD-016/08 H5N1 (Influenza A virus A/chicken/Vietnam/NCVD-016/2008(H5N1)); assay: protein microarray, purified IgG, trimeric HA
[37] = target: recombinant homotrimeric HA A/Indonesia/5/05 H5N1 (Influenza A virus A/Indonesia/5/2005(H5N1)); assay: protein microarray, purified IgG, trimeric HA

Row | Binder | Trimeric HA Binding: RLU [1] [RLU] | Trimeric HA Binding: RLU [2] [RLU] | Trimeric HA Binding: RLU [5] [RLU] | Trimeric HA Binding: RLU [6] [RLU] | Trimeric HA Binding: RLU [7] [RLU] | Trimeric HA Binding: RLU [8] [RLU] | Trimeric HA Binding: RLU [9] [RLU] | Trimeric HA Binding: RLU [11] [RLU] | Trimeric HA Binding: RLU [13] [RLU] | Trimeric HA Binding: RLU [15] [RLU] | Trimeric HA Binding: RLU [17] [RLU] | Trimeric HA Binding: RLU [22] [RLU] | Trimeric HA Binding: RLU [23] [RLU] | Trimeric HA Binding: RLU [25] [RLU] | Trimeric HA Binding: RLU [26] [RLU] | Trimeric HA Binding: RLU [28] [RLU] | Trimeric HA Binding: RLU [30] [RLU] | Trimeric HA Binding: RLU [33] [RLU] | Trimeric HA Binding: RLU [34] [RLU] | also measured
1 | TCN-537 (3194_D21) (antibody, V domains shown) VH: QVQLQQWGSGLLKPSETLSLTCAVYGGSFRDDYWTWIRQPPGKGLEWIGEINHSGRTNYNPSLKSRVTISVDTSLKQFSLKVISVTAADTAVYYCARGTSHVSRYFDWLPPTNWFDPWGQGTQVTVSS VL: DIVLTQSPGTLSLSPGERATLSCRASQSVSSSYLAWYQQKPGQAPRLVMYGAATRATGIPDRFSGSGSGPDFTLTISRLEPEDFAMYYCQQYGNSPITFGQGTRLEIK | 729 | 10200 | 154 | 2840 | 19500 | 171 | 3190 | 1050 | 549 | 44700 | 80 | 8620 | 3280 | 1940 | 16200 | 46800 | 50300 | 25500 | 4480 | Trimeric HA Binding: RLU [3]: 862 RLU; Trimeric HA Binding: RLU [4]: 5690 RLU; Trimeric HA Binding: RLU [10]: 19 RLU; Trimeric HA Binding: RLU [12]: 147 RLU; Trimeric HA Binding: RLU [14]: 5210 RLU; Trimeric HA Binding: RLU [16]: 38200 RLU; Trimeric HA Binding: RLU [18]: 21900 RLU; Trimeric HA Binding: RLU [19]: 14900 RLU; Trimeric HA Binding: RLU [20]: 335 RLU; Trimeric HA Binding: RLU [21]: 7830 RLU; Trimeric HA Binding: RLU [24]: 3650 RLU; Trimeric HA Binding: RLU [27]: 33500 RLU; Trimeric HA Binding: RLU [29]: 10700 RLU; Trimeric HA Binding: RLU [31]: 33800 RLU; Trimeric HA Binding: RLU [32]: 2420 RLU
2 | TCN-545 (5082_I15) (antibody, V domains shown) VH: QVQLQQWGAGLLKPSETLSLSCAVFGGSFSDYYWTWIRQPPGKGLEWIGEIKHSGRTNYNPSLESRVTISVDTSKNQFSLKLSSVTAADTAIYYCARGTDPDTEGYCRSGSCSAFDFWGQGTLVTVSS VL: EIVLTQSPGTLSLSPGERATLSCRASHFVNYRSLAWYQQTPGQVPRLLIYGASTRATGIPDRFSGSGSGTDFTLTISRLEPEDFAVYFCQQYGGSPRYTFGQGTRLEIK | 1490 | 672 | 23700 | 289 | 1400 | 262 | 1410 | 1180 | 575 | 157 | 235 | 392 | 2940 | 32000 | 1360 | 900 | 42900 | 13200 | 3230 | Trimeric HA Binding: RLU [35]: 396 RLU; Trimeric HA Binding: RLU [36]: 679 RLU; Trimeric HA Binding: RLU [37]: 193 RLU
